Data on 1 variant can be found in IntAct's records for PubMed 12679340.

B1: Ornithine carbamoyltransferase (Saccharomyces cerevisiae), P05150 (parent)
chain: MSTTASTPSSLRHLISIKDLSDEEFRILVQRAQHFKNVFKANKTNDFQSNHLKLLGRTIALIFTKRSTRTRISTEGAATFFGAQPMFLGKEDIQLGVNESFYDTTKVVSSMVSCIFARVNKHEDILAFCKDSSVPIINSLCDKFHPLQAICDLLTIIENFNISLDEVNKGINSKLKMAWIGDANNVINDMCIACLKFGISVSISTPPGIEMDSDIVDEAKKVAERNGATFELTHDSLKASTNANILVTDTFVSMGEEFAKQAKLKQFKGFQINQELVSVADPNYKFMHCLPRHQEEVSDDVFYGEHSIVFEEAENRLYAAMSAIDIFVNNKGNFKDLK

The assay covers variants of B1. The note with it: with argi_yeast CAR1, P00812.
argi_yeast CAR1, P00812, sequence (P00812 whole entry): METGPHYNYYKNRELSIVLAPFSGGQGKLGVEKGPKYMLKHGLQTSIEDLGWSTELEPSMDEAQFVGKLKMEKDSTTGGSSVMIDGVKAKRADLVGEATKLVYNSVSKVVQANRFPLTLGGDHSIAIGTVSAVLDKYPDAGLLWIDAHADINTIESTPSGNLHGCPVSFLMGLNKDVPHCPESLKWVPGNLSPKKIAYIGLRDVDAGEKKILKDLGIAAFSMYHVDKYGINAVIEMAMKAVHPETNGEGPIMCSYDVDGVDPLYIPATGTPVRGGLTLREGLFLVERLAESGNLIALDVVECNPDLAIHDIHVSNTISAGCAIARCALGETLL
Turning to D182N, the “effect of a mutation on the interaction” value was “decreasing interaction”.
